Reference: US20040072758A1

T1: rat neurotensin type 1 receptor (rat), P20789
T1 chain: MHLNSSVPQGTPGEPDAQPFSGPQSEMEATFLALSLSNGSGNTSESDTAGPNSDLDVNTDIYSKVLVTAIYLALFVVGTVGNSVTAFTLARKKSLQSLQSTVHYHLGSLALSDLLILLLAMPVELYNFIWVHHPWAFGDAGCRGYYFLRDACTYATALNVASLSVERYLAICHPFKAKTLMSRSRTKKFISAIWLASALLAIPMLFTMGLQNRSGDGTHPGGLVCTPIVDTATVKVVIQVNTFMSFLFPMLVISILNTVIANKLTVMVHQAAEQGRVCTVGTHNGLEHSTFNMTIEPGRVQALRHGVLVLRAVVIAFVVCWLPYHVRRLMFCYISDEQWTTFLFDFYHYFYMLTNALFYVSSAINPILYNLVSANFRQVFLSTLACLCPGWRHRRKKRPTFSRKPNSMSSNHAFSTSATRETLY

T2: rat neurotensin type 2 receptor (rat), Q63384
T2 chain: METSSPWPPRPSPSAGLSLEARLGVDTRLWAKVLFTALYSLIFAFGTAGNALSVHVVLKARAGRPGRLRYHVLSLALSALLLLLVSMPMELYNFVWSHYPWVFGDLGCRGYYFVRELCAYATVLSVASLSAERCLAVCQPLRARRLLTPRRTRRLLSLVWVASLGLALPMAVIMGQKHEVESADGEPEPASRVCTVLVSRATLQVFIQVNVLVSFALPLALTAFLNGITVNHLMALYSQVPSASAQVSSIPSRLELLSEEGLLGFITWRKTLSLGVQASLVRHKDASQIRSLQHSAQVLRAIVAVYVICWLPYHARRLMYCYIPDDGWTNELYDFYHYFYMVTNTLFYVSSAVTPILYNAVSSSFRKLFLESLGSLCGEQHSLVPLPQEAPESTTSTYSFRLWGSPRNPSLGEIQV

T3: mouse neurotensin type 3 receptor (solubilized) (mouse), Q6PHU5
T3 chain: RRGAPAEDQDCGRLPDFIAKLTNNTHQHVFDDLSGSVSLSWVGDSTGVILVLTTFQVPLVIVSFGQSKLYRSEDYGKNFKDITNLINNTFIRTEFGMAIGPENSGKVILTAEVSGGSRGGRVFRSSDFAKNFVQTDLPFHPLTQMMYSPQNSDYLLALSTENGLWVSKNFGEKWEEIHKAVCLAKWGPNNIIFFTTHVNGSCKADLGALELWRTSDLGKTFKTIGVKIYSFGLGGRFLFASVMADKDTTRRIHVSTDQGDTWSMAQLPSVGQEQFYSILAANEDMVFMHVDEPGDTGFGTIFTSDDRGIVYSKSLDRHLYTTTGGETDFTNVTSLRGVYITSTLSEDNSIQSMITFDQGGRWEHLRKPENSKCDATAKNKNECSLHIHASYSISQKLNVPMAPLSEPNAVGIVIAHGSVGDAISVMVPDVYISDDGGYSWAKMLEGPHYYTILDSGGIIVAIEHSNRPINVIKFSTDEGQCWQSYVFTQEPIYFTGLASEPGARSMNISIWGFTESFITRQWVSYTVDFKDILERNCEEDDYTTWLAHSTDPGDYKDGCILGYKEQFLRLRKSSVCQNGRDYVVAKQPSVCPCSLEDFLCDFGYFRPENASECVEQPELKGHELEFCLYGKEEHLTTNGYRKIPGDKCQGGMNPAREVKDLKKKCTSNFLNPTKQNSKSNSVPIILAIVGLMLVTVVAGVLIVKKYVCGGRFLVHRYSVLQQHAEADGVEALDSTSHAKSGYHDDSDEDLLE


Experiments:
[1] = molecular target: T1, rat neurotensin type 1 receptor (rat), …
[2] = molecular target: human neurotensin type 1 receptor (human), P30989
Sequence of human neurotensin type 1 receptor (human), P30989 (P30989 whole entry): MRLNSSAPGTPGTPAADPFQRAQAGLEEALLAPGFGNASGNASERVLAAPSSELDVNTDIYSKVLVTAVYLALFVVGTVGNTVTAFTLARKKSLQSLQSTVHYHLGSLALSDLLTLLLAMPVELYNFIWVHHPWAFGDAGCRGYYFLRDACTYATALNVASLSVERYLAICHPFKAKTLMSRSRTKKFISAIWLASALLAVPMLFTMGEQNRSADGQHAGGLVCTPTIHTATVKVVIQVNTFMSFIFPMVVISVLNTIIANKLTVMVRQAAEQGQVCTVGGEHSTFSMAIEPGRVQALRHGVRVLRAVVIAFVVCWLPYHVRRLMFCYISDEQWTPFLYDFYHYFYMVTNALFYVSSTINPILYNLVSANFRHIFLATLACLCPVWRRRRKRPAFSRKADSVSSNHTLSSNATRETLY

[3] = molecular target: T2, rat neurotensin type 2 receptor (rat), …
[4] = molecular target: T3, mouse neurotensin type 3 receptor …
[5] = molecular target: human neurotensin type 1 receptor (human), P30989; assay: competition radioligand binding, reference neurotensin1-13

Binder	IC50 [1] [nM]	IC50 [2] [nM]	IC50 [3] [nM]	IC50 [4] [nM]	fold lower affinity than Neurotensin1-13 [5] [fold]
QSEEGGSNATKKPYIL (modifications not checked) [contulakin-G (synthetic glycosylated 16-amino acid peptide, Gal(beta1->3)GalNAc(alpha1->) on Thr10)]	524	960	730	250	
QSEEGGSNATKKPYIL (modifications not checked) [non-glycosylated Thr10-contulakin-G]	79	23	170	71	10
